What was measured:
Assay in all cases: BLI
Conditions in all cases: both partners purified
[1] = target: T1, Neisseria meningitidis factor H binding protein variant 3.28 (Neisseria meningitidis, fHbp variant …, strain)
T1 construct: also called fHbp v3.28; fHbp variant 3.28
T1 chain: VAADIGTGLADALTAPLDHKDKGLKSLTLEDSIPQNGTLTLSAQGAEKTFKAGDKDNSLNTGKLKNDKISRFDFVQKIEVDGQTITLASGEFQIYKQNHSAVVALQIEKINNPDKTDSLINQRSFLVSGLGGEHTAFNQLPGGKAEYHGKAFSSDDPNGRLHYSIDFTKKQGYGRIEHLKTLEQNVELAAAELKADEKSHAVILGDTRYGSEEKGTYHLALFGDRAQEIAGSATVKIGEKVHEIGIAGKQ

fHbp m000019 [2] = target: T2, fHbp m000019 (Neisseria meningitidis, fHbp v1.1 …, point mutant)
T2 construct: also called Round 1 best mutant
T2 chain: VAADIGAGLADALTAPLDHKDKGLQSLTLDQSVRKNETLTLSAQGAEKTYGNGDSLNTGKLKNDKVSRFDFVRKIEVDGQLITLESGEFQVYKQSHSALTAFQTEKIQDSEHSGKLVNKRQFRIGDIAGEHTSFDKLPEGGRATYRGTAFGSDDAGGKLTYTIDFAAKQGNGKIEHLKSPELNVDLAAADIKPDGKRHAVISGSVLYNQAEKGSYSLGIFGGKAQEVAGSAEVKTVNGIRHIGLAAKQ

fHbp m002416 = target: T3, fHbp m002416 (Neisseria meningitidis, fHbp v3.28/v1.1 …, point mutant)
T3 construct: also called fHbp 2,416; Round 2 best mutant
T3 chain: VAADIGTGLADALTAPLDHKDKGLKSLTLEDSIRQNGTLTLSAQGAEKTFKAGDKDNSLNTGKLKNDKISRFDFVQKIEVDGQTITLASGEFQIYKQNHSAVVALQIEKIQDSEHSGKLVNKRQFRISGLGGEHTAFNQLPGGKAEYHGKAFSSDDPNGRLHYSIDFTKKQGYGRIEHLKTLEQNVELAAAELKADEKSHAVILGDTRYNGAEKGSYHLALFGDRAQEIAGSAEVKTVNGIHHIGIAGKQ

[3] = target: T4, Neisseria meningitidis factor H binding protein variant 1.1 (Neisseria meningitidis, UniProt Q9JXV4)
T4 construct: also called fHbp v1.1; fHbp variant 1.1

fHbp mutant 0016 = target: T5, fHbp mutant 0016 (Neisseria meningitidis, fHbp v1.1 mutant, point mutant)
T5 chain: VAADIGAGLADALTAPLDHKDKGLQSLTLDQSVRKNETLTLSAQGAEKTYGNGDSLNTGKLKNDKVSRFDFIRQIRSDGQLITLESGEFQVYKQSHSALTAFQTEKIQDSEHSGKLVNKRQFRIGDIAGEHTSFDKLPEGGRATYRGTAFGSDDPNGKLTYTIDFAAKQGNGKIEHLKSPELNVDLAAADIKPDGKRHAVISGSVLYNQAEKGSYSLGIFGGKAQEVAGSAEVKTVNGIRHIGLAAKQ

fHbp mutant 0015 = target: T6, fHbp mutant 0015 (Neisseria meningitidis, fHbp v1.1 mutant, point mutant)
T6 chain: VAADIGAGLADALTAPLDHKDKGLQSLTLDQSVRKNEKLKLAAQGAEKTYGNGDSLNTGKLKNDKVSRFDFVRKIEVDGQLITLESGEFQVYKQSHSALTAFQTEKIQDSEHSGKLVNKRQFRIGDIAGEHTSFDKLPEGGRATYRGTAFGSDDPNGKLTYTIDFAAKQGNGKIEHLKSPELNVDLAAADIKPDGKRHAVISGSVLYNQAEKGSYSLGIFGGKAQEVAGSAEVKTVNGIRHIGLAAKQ

fHbp mutant 0017 = target: T7, fHbp mutant 0017 (Neisseria meningitidis, fHbp v1.1 mutant, point mutant)
T7 chain: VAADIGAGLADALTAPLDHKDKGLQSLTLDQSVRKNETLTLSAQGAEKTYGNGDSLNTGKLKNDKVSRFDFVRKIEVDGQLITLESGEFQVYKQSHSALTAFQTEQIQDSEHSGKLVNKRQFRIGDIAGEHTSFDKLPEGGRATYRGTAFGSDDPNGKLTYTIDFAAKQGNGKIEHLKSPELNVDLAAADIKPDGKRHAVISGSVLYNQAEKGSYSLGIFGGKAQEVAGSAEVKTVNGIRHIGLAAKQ

fHbp mutant 0018 = target: T8, fHbp mutant 0018 (Neisseria meningitidis, fHbp v1.1 mutant, point mutant)
T8 chain: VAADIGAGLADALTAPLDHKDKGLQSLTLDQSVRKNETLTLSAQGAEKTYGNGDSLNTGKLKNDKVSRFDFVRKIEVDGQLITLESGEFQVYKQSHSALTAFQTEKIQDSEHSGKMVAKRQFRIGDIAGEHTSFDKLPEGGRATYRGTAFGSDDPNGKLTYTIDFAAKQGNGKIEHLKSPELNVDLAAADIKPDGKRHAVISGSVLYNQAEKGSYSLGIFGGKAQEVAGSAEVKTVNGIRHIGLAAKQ

[4] = target: T9, factor H binding protein variant 1.1 (Neisseria meningitidis serogroup B …, UniProt Q9JXV4)
T9 construct: also called fHbp v1.1; v1.1 Control (0001)

fHbp mutant 0014 = target: T10, fHbp mutant 0014 (Neisseria meningitidis, fHbp v1.1 mutant, point mutant)
T10 chain: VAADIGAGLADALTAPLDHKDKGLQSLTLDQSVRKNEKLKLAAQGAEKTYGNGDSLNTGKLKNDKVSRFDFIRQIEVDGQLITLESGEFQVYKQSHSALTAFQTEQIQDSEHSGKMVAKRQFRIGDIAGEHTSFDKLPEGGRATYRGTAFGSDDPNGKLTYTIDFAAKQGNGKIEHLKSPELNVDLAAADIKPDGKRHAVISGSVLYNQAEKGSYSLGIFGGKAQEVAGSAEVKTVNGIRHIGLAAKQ

fHbp m000019 [5] = target: T11, fHbp m000019 (Neisseria meningitidis, fHbp v1.1 …, point mutant)
T11 chain: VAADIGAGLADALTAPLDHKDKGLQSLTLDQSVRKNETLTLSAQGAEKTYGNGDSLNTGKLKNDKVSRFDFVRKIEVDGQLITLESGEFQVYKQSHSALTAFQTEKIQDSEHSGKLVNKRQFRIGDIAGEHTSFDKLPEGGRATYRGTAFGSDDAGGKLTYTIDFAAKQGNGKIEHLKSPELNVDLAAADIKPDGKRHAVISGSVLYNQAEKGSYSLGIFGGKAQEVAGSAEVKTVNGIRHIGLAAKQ

fHbp mutant 0012 = target: T12, fHbp mutant 0012 (Neisseria meningitidis, fHbp v1.1 mutant, point mutant)
T12 chain: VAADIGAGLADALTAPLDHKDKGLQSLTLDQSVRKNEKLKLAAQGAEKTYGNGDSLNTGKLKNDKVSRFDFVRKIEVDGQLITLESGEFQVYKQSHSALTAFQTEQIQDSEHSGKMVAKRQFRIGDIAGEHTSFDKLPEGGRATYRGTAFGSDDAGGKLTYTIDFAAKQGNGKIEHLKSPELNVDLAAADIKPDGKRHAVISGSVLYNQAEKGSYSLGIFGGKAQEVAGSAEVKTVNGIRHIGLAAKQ

[6] = target: T13, factor H binding protein variant 3.28 (Neisseria meningitidis, fHbp variant …)
T13 construct: also called fHbp v3.28; v3.28 Control (0002)
T13 chain: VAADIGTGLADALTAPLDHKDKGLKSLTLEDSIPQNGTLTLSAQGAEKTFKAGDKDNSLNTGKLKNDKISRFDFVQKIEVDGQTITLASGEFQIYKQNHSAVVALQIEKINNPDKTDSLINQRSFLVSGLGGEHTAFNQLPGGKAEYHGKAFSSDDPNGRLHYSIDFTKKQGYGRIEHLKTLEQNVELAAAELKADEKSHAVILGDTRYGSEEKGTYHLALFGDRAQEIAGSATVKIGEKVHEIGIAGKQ

[7] = target: T13, factor H binding protein variant 3.28

B1: human mAb 1A12 (antibody, V domains shown)
VH: EVQLVQSGAELKKPGESLKISCKASGYTFTNYWVVWVRQMPGEGLEWMGSIHPRDSDARYSLSFEGRVTFSVDKSTTTAYLQWSSLKVSDSAIYYCARLSQVSGWSPWVGPWGQGTLVTVSS
VL: DIVMTQSPSSLSASVGDRVTITCRASQSISVSLNWYQQKPGKAPKVLIYAASRLQSGIPSRFSGSGSGSHFTLTISSLQPEDFATYYCQETYSDLMYTFGQGTKVEIK
notes: source: Expi293, transient transfection, purified (MabSelect SuRe, SEC)
[1]
  Kd: 7 to 20 nM

B2: mouse mAb JAR5 (antibody, V domains shown)
VH: QVQMQQPGAELVKPGASVKLSCKASGYTFISYWMHWVKQRPGRGLEWIGRIAPDTGIIYYNEKFKNKATLTVDTPSSTAYMQLNSLTSEDSAVYYCARYLKYDGSTYRFDYWGQGTTLTVSS
VL: DIVMTQAAPSVPVTPGESVSISCRSSKSLLHSNGNTYLFWFLQRPGQSPQLLIYRMSNLASGVPDRFSGSGSGTSFTLRISRVEAEDVGVYYCMQHLEYPYTFGGGTKLEIK
notes: also called mouse JAR5 mAb; source: Expi293, transient transfection, purified (MabSelect SuRe, SEC)
fHbp m000019 [2]
  Kd: 0.254 nM

B3: mouse mAb 12C1 (antibody, V domains shown)
VH: QVQLQESGPELVKPGASVKISCKASGYSFSDYNMSWVKQSNGKSLEWIGIIDPKYGTINYNQKFKGKATLTVDQASSTAYMQLNSLTSEDSAVYYCVRDYYGSSYFDYWGQGTTLTVSS
VL: DIVLTQSPSSIYASLGERVTLTCKASQDIHNYLNWFQQKPGKSPKTLIYRANRLVDGVPSRFSGGGSGQDYSLTISSLEFEDIGIYYCLQYDEFPPTFGGGTRLEIK
notes: also called mouse 12C1 mAb; source: Expi293, transient transfection, purified (MabSelect SuRe, SEC)
fHbp m000019 [2]
  Kd: 0.037 nM

B4: chimeric antibody hJAR5 (antibody, V domains shown)
VH: QVQMQQPGAELVKPGASVKLSCKASGYTFISYWMHWVKQRPGRGLEWIGRIAPDTGIIYYNEKFKNKATLTVDTPSSTAYMQLNSLTSEDSAVYYCARYLKYDGSTYRFDYWGQGTTLTVSS
VL: DIVMTQAAPSVPVTPGESVSISCRSSKSLLHSNGNTYLFWFLQRPGQSPQLLIYRMSNLASGVPDRFSGSGSGTSFTLRISRVEAEDVGVYYCMQHLEYPYTFGGGTKLEIK
fHbp m002416
  Kd: 0.631 nM

B5: chimeric antibody h12C1 (antibody, V domains shown)
VH: QVQLQESGPELVKPGASVKISCKASGYSFSDYNMSWVKQSNGKSLEWIGIIDPKYGTINYNQKFKGKATLTVDQASSTAYMQLNSLTSEDSAVYYCVRDYYGSSYFDYWGQGTTLTVSS
VL: DIVLTQSPSSIYASLGERVTLTCKASQDIHNYLNWFQQKPGKSPKTLIYRANRLVDGVPSRFSGGGSGQDYSLTISSLEFEDIGIYYCLQYDEFPPTFGGGTRLEIK
notes: also called humanized 12C1 mAb; source: Expi293, transient transfection, purified (MabSelect SuRe, SEC)
[3]
  Kd: 0.1 to 0.8 nM
fHbp m002416
  Kd: 0.293 nM

B6: mAb 12C1 (mouse) (antibody, V domains shown)
VH: QVQLQESGPELVKPGASVKISCKASGYSFSDYNMSWVKQSNGKSLEWIGIIDPKYGTINYNQKFKGKATLTVDQASSTAYMQLNSLTSEDSAVYYCVRDYYGSSYFDYWGQGTTLTVSS
VL: DIVLTQSPSSIYASLGERVTLTCKASQDIHNYLNWFQQKPGKSPKTLIYRANRLVDGVPSRFSGGGSGQDYSLTISSLEFEDIGIYYCLQYDEFPPTFGGGTRLEIK
notes: source: Expi293, purified (MabSelect SuRe, SEC); copies: 2 + 2
fHbp mutant 0016
  Kd: < 1 pM
  koff: < 1e-07 s⁻¹
  kon: 101000 ± 20700 M⁻¹ s⁻¹
fHbp mutant 0015
  Kd: < 0.001 nM
  koff: < 1e-07 s⁻¹
  kon: 386000 ± 44100 M⁻¹ s⁻¹
fHbp mutant 0017
  Kd: < 0.001 nM
  koff: < 1e-07 s⁻¹
  kon: 359000 ± 10900 M⁻¹ s⁻¹
fHbp mutant 0018
  Kd: < 0.001 nM
  koff: < 1e-07 s⁻¹
  kon: 397000 ± 13200 M⁻¹ s⁻¹
[4]
  Kd: < 1 pM
  koff: < 1e-07 s⁻¹
  kon: 796000 ± 15600 M⁻¹ s⁻¹
fHbp mutant 0014
  Kd: < 0.001 nM
  koff: < 1e-07 s⁻¹
  kon: 809000 ± 12500 M⁻¹ s⁻¹
fHbp m000019 [5]
  koff: 2.2e-05 s⁻¹
  kon: 585000 ± 6100 M⁻¹ s⁻¹
fHbp mutant 0012
  Kd: < 0.001 nM
  koff: < 1e-07 s⁻¹
  kon: 599000 ± 21400 M⁻¹ s⁻¹

B7: mAb 1A12 (human) (antibody, V domains shown)
VH: EVQLVQSGAELKKPGESLKISCKASGYTFTNYWVVWVRQMPGEGLEWMGSIHPRDSDARYSLSFEGRVTFSVDKSTTTAYLQWSSLKVSDSAIYYCARLSQVSGWSPWVGPWGQGTLVTVSS
VL: DIVMTQSPSSLSASVGDRVTITCRASQSISVSLNWYQQKPGKAPKVLIYAASRLQSGIPSRFSGSGSGSHFTLTISSLQPEDFATYYCQETYSDLMYTFGQGTKVEIK
notes: as for B6
[4]
  Kd: < 1 pM
[6]
  Kd: 65.9 nM
[7]
  Kd: 20.4 nM

B8: mAb JAR5 (mouse) (antibody, V domains shown)
VH: QVQMQQPGAELVKPGASVKLSCKASGYTFISYWMHWVKQRPGRGLEWIGRIAPDTGIIYYNEKFKNKATLTVDTPSSTAYMQLNSLTSEDSAVYYCARYLKYDGSTYRFDYWGQGTTLTVSS
VL: DIVMTQAAPSVPVTPGESVSISCRSSKSLLHSNGNTYLFWFLQRPGQSPQLLIYRMSNLASGVPDRFSGSGSGTSFTLRISRVEAEDVGVYYCMQHLEYPYTFGGGTKLEIK
notes: as for B6
fHbp mutant 0015
  Kd: 0.209 nM
fHbp mutant 0017
  Kd: 0.0297 nM
fHbp mutant 0018
  Kd: 0.404 nM
fHbp mutant 0014
  Kd: 0.211 nM
fHbp mutant 0012
  Kd: 0.418 nM
